T1: FcγRIIb (human, UniProt P31994 43-217)
T1 construct: extracellular domain; also called FcgRIIb; CD32B
T1 sequence (looked up): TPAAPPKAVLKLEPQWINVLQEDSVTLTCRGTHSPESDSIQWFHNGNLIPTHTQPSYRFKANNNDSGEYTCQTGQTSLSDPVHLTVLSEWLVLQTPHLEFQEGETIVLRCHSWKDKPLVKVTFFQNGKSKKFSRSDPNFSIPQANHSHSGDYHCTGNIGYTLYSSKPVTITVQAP


Assays:
FcγRIa [1] = molecular target: T2, FcγRIa (human, UniProt P12314 16-292); assay: ratio of He/Con_1a to He/Con_2b (FcγRIa over FcγRIIb), SPR
T2 construct: extracellular domain; also called FcgRI; CD64
T2 sequence (P12314 16-292): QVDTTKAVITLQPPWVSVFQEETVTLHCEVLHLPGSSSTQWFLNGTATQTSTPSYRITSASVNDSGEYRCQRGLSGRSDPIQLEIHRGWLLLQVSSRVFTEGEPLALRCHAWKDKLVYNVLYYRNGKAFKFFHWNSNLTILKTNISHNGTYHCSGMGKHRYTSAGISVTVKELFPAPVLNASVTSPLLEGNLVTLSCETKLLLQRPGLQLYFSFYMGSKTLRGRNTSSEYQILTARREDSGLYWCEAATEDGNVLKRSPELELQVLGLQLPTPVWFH
Outline: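 Biacore T100 SPR at 25 °C in HBS-EP+ running buffer. Antibodies were captured on antigen-peptide chips (amine-coupled on CM5 or biotinylated on SA) and each FcγR, diluted in running buffer, flowed as analyte; surfaces regenerated with 10 mM glycine-HCl, pH 1.5.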

FcγRIa [2] = molecular target: T2, FcγRIa; assay: SPR (Biacore), captured antibody, soluble FcγR; relative to GpH7-A5/GpH7-B3/GpL16-k0 = 100
FcγRIIb = molecular target: T1, FcγRIIb; assay: as above

He_1a/2b (Ia/IIb) (FcγRIa [1]) | He/Con_1a (FcγRIa [2]) | He/Con_2b (FcγRIIb) | Binder
1.27 | 96.6 % of control | 76.1 % of control | GpH7-A5/GpH7-B3 variant E333_18N/GpL16-k0 (antibody, human IgG1, kappa, He Ab; mutation in the GpH7-B3 chain only; also called He Ab) heavy 1: not shown heavy 2: not shown light: DIVMTQSPLSLPVTPGEPASISCQASESLVHSNRNTYLHWYLQKPGQSPQLLIYKVSNRFSGVPDRFSGSGSGTDFTLKISRVEAEDVGVYYCSQNTHVPPTFGQGTKVEIERTVAAPSVFIFPPSDEQLKSGTASVVCLLNNFYPREAKVQWKVDNALQSGNSQESVTEQDSKDSTYSLSSTLTLSKADYEKHKVYACEVTHQGLSSPVTKSFNRGEC
1.45 | 77.6 % of control | 53.5 % of control | GpH7-A5/GpH7-B3 variant P329_09D/GpL16-k0 (antibody, human IgG1, kappa, He Ab; mutation in the GpH7-B3 chain only; also called He Ab) heavy 1: not shown heavy 2: not shown light: DIVMTQSPLSLPVTPGEPASISCQASESLVHSNRNTYLHWYLQKPGQSPQLLIYKVSNRFSGVPDRFSGSGSGTDFTLKISRVEAEDVGVYYCSQNTHVPPTFGQGTKVEIERTVAAPSVFIFPPSDEQLKSGTASVVCLLNNFYPREAKVQWKVDNALQSGNSQESVTEQDSKDSTYSLSSTLTLSKADYEKHKVYACEVTHQGLSSPVTKSFNRGEC
4.28 | 86.7 % of control | 20.3 % of control | GpH7-A5/GpH7-B3 variant I336_20W/GpL16-k0 (antibody, human IgG1, kappa, He Ab; mutation in the GpH7-B3 chain only; also called He Ab) heavy 1: not shown heavy 2: not shown light: DIVMTQSPLSLPVTPGEPASISCQASESLVHSNRNTYLHWYLQKPGQSPQLLIYKVSNRFSGVPDRFSGSGSGTDFTLKISRVEAEDVGVYYCSQNTHVPPTFGQGTKVEIERTVAAPSVFIFPPSDEQLKSGTASVVCLLNNFYPREAKVQWKVDNALQSGNSQESVTEQDSKDSTYSLSSTLTLSKADYEKHKVYACEVTHQGLSSPVTKSFNRGEC
2.53 | 97.4 % of control | 38.5 % of control | GpH7-A5/GpH7-B3 variant P329_03V/GpL16-k0 (antibody, human IgG1, kappa, He Ab; mutation in the GpH7-B3 chain only; also called He Ab) heavy 1: not shown heavy 2: not shown light: DIVMTQSPLSLPVTPGEPASISCQASESLVHSNRNTYLHWYLQKPGQSPQLLIYKVSNRFSGVPDRFSGSGSGTDFTLKISRVEAEDVGVYYCSQNTHVPPTFGQGTKVEIERTVAAPSVFIFPPSDEQLKSGTASVVCLLNNFYPREAKVQWKVDNALQSGNSQESVTEQDSKDSTYSLSSTLTLSKADYEKHKVYACEVTHQGLSSPVTKSFNRGEC
1.78 | 104 % of control | 58.2 % of control | GpH7-A5/GpH7-B3 variant I336_19Q/GpL16-k0 (antibody, human IgG1, kappa, He Ab; mutation in the GpH7-B3 chain only; also called He Ab) heavy 1: not shown heavy 2: not shown light: DIVMTQSPLSLPVTPGEPASISCQASESLVHSNRNTYLHWYLQKPGQSPQLLIYKVSNRFSGVPDRFSGSGSGTDFTLKISRVEAEDVGVYYCSQNTHVPPTFGQGTKVEIERTVAAPSVFIFPPSDEQLKSGTASVVCLLNNFYPREAKVQWKVDNALQSGNSQESVTEQDSKDSTYSLSSTLTLSKADYEKHKVYACEVTHQGLSSPVTKSFNRGEC
1.42 | 92.2 % of control | 65.1 % of control | GpH7-A5/GpH7-B3 variant L328_05P/GpL16-k0 (antibody, human IgG1, kappa, He Ab; mutation in the GpH7-B3 chain only; also called He Ab) heavy 1: not shown heavy 2: not shown light: DIVMTQSPLSLPVTPGEPASISCQASESLVHSNRNTYLHWYLQKPGQSPQLLIYKVSNRFSGVPDRFSGSGSGTDFTLKISRVEAEDVGVYYCSQNTHVPPTFGQGTKVEIERTVAAPSVFIFPPSDEQLKSGTASVVCLLNNFYPREAKVQWKVDNALQSGNSQESVTEQDSKDSTYSLSSTLTLSKADYEKHKVYACEVTHQGLSSPVTKSFNRGEC
1.51 | 103 % of control | 68.2 % of control | GpH7-A5/GpH7-B3 variant I336_15Y/GpL16-k0 (antibody, human IgG1, kappa, He Ab; mutation in the GpH7-B3 chain only; also called He Ab) heavy 1: not shown heavy 2: not shown light: DIVMTQSPLSLPVTPGEPASISCQASESLVHSNRNTYLHWYLQKPGQSPQLLIYKVSNRFSGVPDRFSGSGSGTDFTLKISRVEAEDVGVYYCSQNTHVPPTFGQGTKVEIERTVAAPSVFIFPPSDEQLKSGTASVVCLLNNFYPREAKVQWKVDNALQSGNSQESVTEQDSKDSTYSLSSTLTLSKADYEKHKVYACEVTHQGLSSPVTKSFNRGEC
2.88 | 92.7 % of control | 32.2 % of control | GpH7-A5/GpH7-B3 variant P329_04F/GpL16-k0 (antibody, human IgG1, kappa, He Ab; mutation in the GpH7-B3 chain only; also called He Ab) heavy 1: not shown heavy 2: not shown light: DIVMTQSPLSLPVTPGEPASISCQASESLVHSNRNTYLHWYLQKPGQSPQLLIYKVSNRFSGVPDRFSGSGSGTDFTLKISRVEAEDVGVYYCSQNTHVPPTFGQGTKVEIERTVAAPSVFIFPPSDEQLKSGTASVVCLLNNFYPREAKVQWKVDNALQSGNSQESVTEQDSKDSTYSLSSTLTLSKADYEKHKVYACEVTHQGLSSPVTKSFNRGEC
1.25 | 106 % of control | 84.9 % of control | GpH7-A5/GpH7-B3 variant I336_02A/GpL16-k0 (antibody, human IgG1, kappa, He Ab; mutation in the GpH7-B3 chain only; also called He Ab) heavy 1: not shown heavy 2: not shown light: DIVMTQSPLSLPVTPGEPASISCQASESLVHSNRNTYLHWYLQKPGQSPQLLIYKVSNRFSGVPDRFSGSGSGTDFTLKISRVEAEDVGVYYCSQNTHVPPTFGQGTKVEIERTVAAPSVFIFPPSDEQLKSGTASVVCLLNNFYPREAKVQWKVDNALQSGNSQESVTEQDSKDSTYSLSSTLTLSKADYEKHKVYACEVTHQGLSSPVTKSFNRGEC
2.95 | 85.7 % of control | 29.1 % of control | GpH7-A5/GpH7-B3 variant P329_08L/GpL16-k0 (antibody, human IgG1, kappa, He Ab; mutation in the GpH7-B3 chain only; also called He Ab) heavy 1: not shown heavy 2: not shown light: DIVMTQSPLSLPVTPGEPASISCQASESLVHSNRNTYLHWYLQKPGQSPQLLIYKVSNRFSGVPDRFSGSGSGTDFTLKISRVEAEDVGVYYCSQNTHVPPTFGQGTKVEIERTVAAPSVFIFPPSDEQLKSGTASVVCLLNNFYPREAKVQWKVDNALQSGNSQESVTEQDSKDSTYSLSSTLTLSKADYEKHKVYACEVTHQGLSSPVTKSFNRGEC
1.22 | 98.7 % of control | 80.8 % of control | GpH7-A5/GpH7-B3 variant L328_18N/GpL16-k0 (antibody, human IgG1, kappa, He Ab; mutation in the GpH7-B3 chain only; also called He Ab) heavy 1: not shown heavy 2: not shown light: DIVMTQSPLSLPVTPGEPASISCQASESLVHSNRNTYLHWYLQKPGQSPQLLIYKVSNRFSGVPDRFSGSGSGTDFTLKISRVEAEDVGVYYCSQNTHVPPTFGQGTKVEIERTVAAPSVFIFPPSDEQLKSGTASVVCLLNNFYPREAKVQWKVDNALQSGNSQESVTEQDSKDSTYSLSSTLTLSKADYEKHKVYACEVTHQGLSSPVTKSFNRGEC
1.22 | 102 % of control | 83.7 % of control | GpH7-A5/GpH7-B3 variant I336_13S/GpL16-k0 (antibody, human IgG1, kappa, He Ab; mutation in the GpH7-B3 chain only; also called He Ab) heavy 1: not shown heavy 2: not shown light: DIVMTQSPLSLPVTPGEPASISCQASESLVHSNRNTYLHWYLQKPGQSPQLLIYKVSNRFSGVPDRFSGSGSGTDFTLKISRVEAEDVGVYYCSQNTHVPPTFGQGTKVEIERTVAAPSVFIFPPSDEQLKSGTASVVCLLNNFYPREAKVQWKVDNALQSGNSQESVTEQDSKDSTYSLSSTLTLSKADYEKHKVYACEVTHQGLSSPVTKSFNRGEC
2.05 | 100 % of control | 48.9 % of control | GpH7-A5/GpH7-B3 variant I332_12R/GpL16-k0 (antibody, human IgG1, kappa, He Ab; mutation in the GpH7-B3 chain only; also called He Ab) heavy 1: not shown heavy 2: not shown light: DIVMTQSPLSLPVTPGEPASISCQASESLVHSNRNTYLHWYLQKPGQSPQLLIYKVSNRFSGVPDRFSGSGSGTDFTLKISRVEAEDVGVYYCSQNTHVPPTFGQGTKVEIERTVAAPSVFIFPPSDEQLKSGTASVVCLLNNFYPREAKVQWKVDNALQSGNSQESVTEQDSKDSTYSLSSTLTLSKADYEKHKVYACEVTHQGLSSPVTKSFNRGEC
2.52 | 102 % of control | 40.5 % of control | GpH7-A5/GpH7-B3 variant P329_02A/GpL16-k0 (antibody, human IgG1, kappa, He Ab; mutation in the GpH7-B3 chain only; also called He Ab) heavy 1: not shown heavy 2: not shown light: DIVMTQSPLSLPVTPGEPASISCQASESLVHSNRNTYLHWYLQKPGQSPQLLIYKVSNRFSGVPDRFSGSGSGTDFTLKISRVEAEDVGVYYCSQNTHVPPTFGQGTKVEIERTVAAPSVFIFPPSDEQLKSGTASVVCLLNNFYPREAKVQWKVDNALQSGNSQESVTEQDSKDSTYSLSSTLTLSKADYEKHKVYACEVTHQGLSSPVTKSFNRGEC
2.94 | 85.3 % of control | 29.1 % of control | GpH7-A5/GpH7-B3 variant P329_06M/GpL16-k0 (antibody, human IgG1, kappa, He Ab; mutation in the GpH7-B3 chain only; also called He Ab) heavy 1: not shown heavy 2: not shown light: DIVMTQSPLSLPVTPGEPASISCQASESLVHSNRNTYLHWYLQKPGQSPQLLIYKVSNRFSGVPDRFSGSGSGTDFTLKISRVEAEDVGVYYCSQNTHVPPTFGQGTKVEIERTVAAPSVFIFPPSDEQLKSGTASVVCLLNNFYPREAKVQWKVDNALQSGNSQESVTEQDSKDSTYSLSSTLTLSKADYEKHKVYACEVTHQGLSSPVTKSFNRGEC
1.21 | 97.2 % of control | 80.2 % of control | GpH7-A5/GpH7-B3 variant L328_01G/GpL16-k0 (antibody, human IgG1, kappa, He Ab; mutation in the GpH7-B3 chain only; also called He Ab) heavy 1: not shown heavy 2: not shown light: DIVMTQSPLSLPVTPGEPASISCQASESLVHSNRNTYLHWYLQKPGQSPQLLIYKVSNRFSGVPDRFSGSGSGTDFTLKISRVEAEDVGVYYCSQNTHVPPTFGQGTKVEIERTVAAPSVFIFPPSDEQLKSGTASVVCLLNNFYPREAKVQWKVDNALQSGNSQESVTEQDSKDSTYSLSSTLTLSKADYEKHKVYACEVTHQGLSSPVTKSFNRGEC
2.72 | 94.1 % of control | 34.6 % of control | GpH7-A5/GpH7-B3 variant P329_07I/GpL16-k0 (antibody, human IgG1, kappa, He Ab; mutation in the GpH7-B3 chain only; also called He Ab) heavy 1: not shown heavy 2: not shown light: DIVMTQSPLSLPVTPGEPASISCQASESLVHSNRNTYLHWYLQKPGQSPQLLIYKVSNRFSGVPDRFSGSGSGTDFTLKISRVEAEDVGVYYCSQNTHVPPTFGQGTKVEIERTVAAPSVFIFPPSDEQLKSGTASVVCLLNNFYPREAKVQWKVDNALQSGNSQESVTEQDSKDSTYSLSSTLTLSKADYEKHKVYACEVTHQGLSSPVTKSFNRGEC
1.21 | 109 % of control | 90.1 % of control | GpH7-A5/GpH7-B3 variant I336_01G/GpL16-k0 (antibody, human IgG1, kappa, He Ab; mutation in the GpH7-B3 chain only; also called He Ab) heavy 1: not shown heavy 2: not shown light: DIVMTQSPLSLPVTPGEPASISCQASESLVHSNRNTYLHWYLQKPGQSPQLLIYKVSNRFSGVPDRFSGSGSGTDFTLKISRVEAEDVGVYYCSQNTHVPPTFGQGTKVEIERTVAAPSVFIFPPSDEQLKSGTASVVCLLNNFYPREAKVQWKVDNALQSGNSQESVTEQDSKDSTYSLSSTLTLSKADYEKHKVYACEVTHQGLSSPVTKSFNRGEC

From patent US20150344570A1 (published 2015)
